Results as given in patent US20100297093A1.
Read-outs that look alike come from different tables or passages of the source. Blank lines part the entries; values can stand above or below the molecule they belong to.

Legend:
[1] = target: MART-1:27-35 peptide presented by HLA-A2 on target cells (UniProt Q16655); experiment: cell-based or functional assay
[2] = target: MART-1 peptide on HLA-A*02:01 (human); experiment: peptide titration, transfected CD4+ T cells, peptide-pulsed target cells; upper bound 100 fold; minimal effect in CD8+ T cells; full-length, on cells
[3] = target: MART-1:27-35 peptide presented by HLA-A2 on target cells (UniProt Q16655); experiment: cell-based or functional assay; remark: listed apart in the source

IFN-γ; CD4+ T; 624.38 [1]: 15800 pg/mL | IFN-γ; CD4+ T; 1300 [1]: 11200 pg/mL | IFN-γ; CD8+ T; 624.38 [1]: 32800 pg/mL | IFN-γ; CD8+ T; 1300 [1]: 78000 pg/mL | peptide titration; CD4+ T; fold lower MART-1:27-35 concentration recognized vs WT DMF4 [1]: 10 to 100 fold
Molecule: DMF4 TCR, WT α + β51:A (G51A)

IFN-γ; CD4+ T; 624.38 [1]: 3220 pg/mL | IFN-γ; CD4+ T; 1300 [1]: 3480 pg/mL | IFN-γ; CD8+ T; 624.38 [1]: 47700 pg/mL | IFN-γ; CD8+ T; 1300 [1]: 32800 pg/mL
Molecule: DMF4 anti-MART-1 TCR, wild type α and β chains

fold lower peptide concentration recognised than with the WT TCR [2]: > 10 fold
Molecule: DMF4 β51:A

IFN-γ; CD4+ T; 624.38 [3]: 20400 pg/mL | IFN-γ; CD4+ T; 1300 [3]: 11100 pg/mL | IFN-γ; CD8+ T; 624.38 [3]: 36400 pg/mL | IFN-γ; CD8+ T; 1300 [3]: 91800 pg/mL
B1: DMF4 TCR, αLA (T93L/G94A) + WT β (TCR, part only; not given: wild type beta chain, part only)
TCR alpha: GQQLNQSPQSMFIQEGEDVSMNCTSSSIFNTWLWYKQDPGEGPVLLIALYKAGELTSNGRLTAQFGITRKDSFLNISASIPSDVGIYFCAGGLANQFYFGTGTSLTVIPNIQNPDPAVYQLRDSKSSDKSVCLFTDFDSQTNVSQSKDSDVYITDKTVLDMRSMDFKSNSAVAWSNKSDFACANAFNNSIIPEDTFFPSPESSCDVKLVEKSFETDTNLNFQNLSVIGFRILLLKVAGFNLLMTLRLWSS
